{
  "source": "patent US20220242962A1",
  "about": "(APTEVO RESEARCH AND DEVELOPMENT, published 2022)",
  "binders": {"B1": {"name": "FXX01115 (bispecific antibody)", "chain": "EVQLVQSGAEVKKPGASVKVSCKASGYTFTSYWMNWVRQAPGQGLEWMGNIYPSGGSTNYAQKFQGRVTMTVDTSTSTVYMELSSLRSEDTAVYYCASFSDGYYAYAMDYWGQGTLVTVSSGGGGSGGGGSGGGGSGGGGSEIVMTQSPATLSLSPGERATLSCRASQSVSSYLNWYQQKPGQAPRLLIYYASRRHTGIPARFSGSGSGTDFTLTISSLQPEDFAVYYCQQGYNLPYTFGQGTKVEIKEPKSSDKTHTCPPCPAPPAAAPSVFLFPPKPKDTLMISRTPEVTCVVVDVSHEDPEVKFNWYVDGVEVHNAKTKPREEQYNSTYRVVSVLTVLHQDWLNGKEYKCAVSNKALPAPIEKTISKAKGQPREPQVYTLPPSRDELTKNQVSLTCLVKGFYPSDIAVEWESNGQPENNYKTTPPVLDSDGSFFLYSKLTVDKSRWQQGNVFSCSVMHEALHNHYTQKSLSLSPGGGGSPSSYVLTQPPSVSVAPGQTARITCGGNNIGSKSVNWFQQKPGQAPVLVVYDDSGRPSGVPNRFSGSTSGNTATLTISRVEAGDEADYYCQVWDSSSDHVVFGGGTKLTVLGGGGSGGGGSGGGGSGGGGSQVQLVESGGGVVQPGRSLRLSCAASGFTLSYYGMHWVRQAPGKGLEWVAAISHDGSDKYYADSVKGRFTISRDNSKNRLYLQMNSLRAEDTAVYYCSNDQFDPWGQGTLVTVSSR", "notes": "ADAPTIR anti-4-1BB x anti-OX40, pI variant; PAA (del) Fc"}, "B2": {"name": "FXX01119 (bispecific antibody)", "chain": "EVQLVQSGAEVKKPGASVKVSCKASGYTFTSYWMNWVRQAPGQGLEWMGNIYPSGGSTNYAQKFQGRVTMTVDTSTSTVYMELSSLRSEDTAVYYCASFSDGYYAYAMDYWGQGTLVTVSSGGGGSGGGGSGGGGSGGGGSEIVMTQSPATLSLSPGERATLSCRASQSVSSYLNWYQQKPGQAPRLLIYYASRRHTGIPARFSGSGSGTDFTLTISSLQPEDFAVYYCQQGYNLPYTFGQGTKVEIKEPKSSDKTHTCPPCPAPPAAAPSVFLFPPKPKDTLMISRTPEVTCVVVDVSHEDPEVKFNWYVDGVEVHNAKTKPREEQYNSTYRVVSVLTVLHQDWLNGKEYKCAVSNKALPAPIEKTISKAKGQPREPQVYTLPPSRDELTKNQVSLTCLVKGFYPSDIAVEWESNGQPENNYKTTPPVLDSDGSFFLYSKLTVDKSRWQQGNVFSCSVMHEALHNHYTQKSLSLSPGGGGSPSSYVLTQPPSVSVAPGKTARITCGGNNIGSKSVNWFQQKPGQAPVLVVYDDSGRPSGVPNRFSGSTSGNTATLTISRVEAGDEADYYCQVWDSSSDHVVFGGGTKLTVLGGGGSGGGGSGGGGSGGGGSQVQLVESGGGVVQPGRSLRLSCAASGFTLSYYGMHWVRQAPGKGLEWVAAISHDGSDKYYADSVKGRFTISRDNSKNRLYLQMNSLRAEDTAVYYCSNDQFDPWGQGTLVTVSSR", "notes": "as for B1"}},
  "key": {"Human 4-1BB ECD-AFH": {"target": "T1, Human 4-1BB ECD-AFH (human)", "T1 construct": "entry includes the tags; also called FOB003; HUMAN CD137 ECD-AVI-FLAG-HIS", "assay": "SPR (Biacore 8K), construct captured, monovalent ECD"}, "Human OX40 ECD-AFH": {"target": "T2, Human OX40 ECD-AFH (human)", "T2 construct": "ECD'; entry includes the C-terminal tags; also called OXF003; Human OX40 ECD-avi-flag-his", "T2 chain": "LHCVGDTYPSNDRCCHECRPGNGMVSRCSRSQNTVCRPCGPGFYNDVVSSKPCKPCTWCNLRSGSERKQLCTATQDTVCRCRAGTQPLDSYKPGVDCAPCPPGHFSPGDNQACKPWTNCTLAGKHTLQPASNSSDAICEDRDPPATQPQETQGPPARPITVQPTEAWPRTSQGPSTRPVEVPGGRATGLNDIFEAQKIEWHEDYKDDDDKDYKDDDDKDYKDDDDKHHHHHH", "assay": "SPR (Biacore 8K), construct captured, monovalent ECD"}, "Full-length Cyno OX40": {"target": "T3, Full-length Cyno OX40 (cynomolgus monkey, UniProt P43489 29-277 (human entry))", "T3 construct": "on CHO-K1SV cells; also called OXF004; cynomolgus OX40", "T3 chain": "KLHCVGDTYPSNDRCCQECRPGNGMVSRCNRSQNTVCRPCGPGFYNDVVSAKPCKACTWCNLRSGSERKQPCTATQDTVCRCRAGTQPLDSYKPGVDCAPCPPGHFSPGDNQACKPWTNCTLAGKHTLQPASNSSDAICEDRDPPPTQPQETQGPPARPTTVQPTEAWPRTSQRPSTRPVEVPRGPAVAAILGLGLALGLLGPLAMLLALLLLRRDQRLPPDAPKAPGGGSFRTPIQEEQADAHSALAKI", "assay": "flow cytometry on CHOK1SV cells transfected with cynomolgus OX40, goat anti-human Fc secondary antibody, MFI (Mean)", "method": "Serial dilutions of ADAPTIR™ constructs were incubated with transfected target cells and subsequently labelled with a fluorescently-conjugated goat-a-human Fc secondary antibody. […] (See Example 25.)"}, "[1]": {"target": "T4, Fc gamma receptor RIIA R167 (human, UniProt P12318 36-218)", "T4 construct": "soluble SPR analyte", "T4 sequence (looked up)": "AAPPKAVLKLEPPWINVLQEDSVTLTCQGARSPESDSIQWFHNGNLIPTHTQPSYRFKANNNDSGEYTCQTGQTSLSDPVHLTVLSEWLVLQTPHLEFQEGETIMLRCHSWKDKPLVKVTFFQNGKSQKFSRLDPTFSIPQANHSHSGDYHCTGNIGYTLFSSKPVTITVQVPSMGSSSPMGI", "assay": "SPR, construct immobilized, receptor injected at 2 uM", "method": "(§1) Fcγ receptor binding to bispecific proteins was measured by Surface Plasmon Resonance on a Biacore 8K instrument at room temperature. Bispecific proteins with modified Fc regions to reduce binding to Fcγ receptors were directly immobilized on the surface of a CM5 sensor chip to a surface density of 4000 RU. A bispecific ADAPTIR™ protein with a wild type Fc was similarly immobilized to the surface as a positive control and used as a comparator to evaluate the reduction in binding resulting from changes incorporated into the Fc region amino acid sequence. Fcγ receptors (purchased from R&D Systems) were diluted to either 100 nM (FcγRI) or 2 μM (all other Fcγ receptors) in HBS-EP+ buffer before injecting over the surface of the prepared sensor chip at 30 μL/min for 60 seconds. Maximum RU values during association phase of each injection were used to compare the extent of binding of the modified Fc to wild type value and are reported in Table 17 below."}, "Fc gamma receptor RIIB/C": {"target": "T5, Fc gamma receptor RIIB/C (human, UniProt P31994 46-217)", "T5 construct": "soluble SPR analyte", "T5 sequence (looked up)": "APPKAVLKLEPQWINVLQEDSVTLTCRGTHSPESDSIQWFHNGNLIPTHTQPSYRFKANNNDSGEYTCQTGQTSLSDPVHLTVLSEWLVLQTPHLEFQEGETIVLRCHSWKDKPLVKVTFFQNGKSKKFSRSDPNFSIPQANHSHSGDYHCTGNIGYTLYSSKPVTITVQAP", "assay": "SPR, construct immobilized, receptor injected at 2 uM", "method": "as §1"}, "[2]": {"target": "T6, Fc gamma receptor RIIA H167 (human, UniProt P12318 36-218)", "T6 construct": "soluble SPR analyte", "T6 sequence (looked up)": "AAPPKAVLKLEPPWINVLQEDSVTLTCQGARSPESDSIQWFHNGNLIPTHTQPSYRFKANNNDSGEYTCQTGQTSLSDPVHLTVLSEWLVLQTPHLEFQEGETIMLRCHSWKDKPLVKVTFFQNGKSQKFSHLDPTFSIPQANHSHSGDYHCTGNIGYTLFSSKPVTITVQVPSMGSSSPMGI", "assay": "SPR, construct immobilized, receptor injected at 2 uM", "method": "as §1"}},
  "data": [
    {"binder": "B1", "values": [
      {"measurement": "Kd", "setting": "Human 4-1BB ECD-AFH", "value": 16, "unit": "nM"},
      {"measurement": "koff", "setting": "Human 4-1BB ECD-AFH", "value": 0.0041, "unit": "s⁻¹"},
      {"measurement": "kon", "setting": "Human 4-1BB ECD-AFH", "value": 260000, "unit": "M⁻¹ s⁻¹"},
      {"measurement": "Kd", "setting": "Human OX40 ECD-AFH", "value": "< 1", "unit": "nM"},
      {"measurement": "koff", "setting": "Human OX40 ECD-AFH", "value": 0.0003, "unit": "s⁻¹"},
      {"measurement": "kon", "setting": "Human OX40 ECD-AFH", "value": 980000, "unit": "M⁻¹ s⁻¹"},
      {"measurement": "EC50 (read off the curve)", "setting": "Full-length Cyno OX40", "value": "1 to 2", "unit": "nM"},
      {"measurement": "Max RU value during association", "setting": "[1]", "value": 89, "unit": "RU"},
      {"measurement": "Max RU value during association", "setting": "Fc gamma receptor RIIB/C", "value": 19, "unit": "RU"},
      {"measurement": "Max RU value during association", "setting": "[2]", "value": 12, "unit": "RU"}
    ]},
    {"binder": "B2", "values": [
      {"measurement": "Kd", "setting": "Human 4-1BB ECD-AFH", "value": 18, "unit": "nM"},
      {"measurement": "koff", "setting": "Human 4-1BB ECD-AFH", "value": 0.0046, "unit": "s⁻¹"},
      {"measurement": "kon", "setting": "Human 4-1BB ECD-AFH", "value": 260000, "unit": "M⁻¹ s⁻¹"},
      {"measurement": "Kd", "setting": "Human OX40 ECD-AFH", "value": 0.3, "unit": "nM"},
      {"measurement": "koff", "setting": "Human OX40 ECD-AFH", "value": 0.00031, "unit": "s⁻¹"},
      {"measurement": "kon", "setting": "Human OX40 ECD-AFH", "value": 920000, "unit": "M⁻¹ s⁻¹"},
      {"measurement": "EC50 (read off the curve)", "setting": "Full-length Cyno OX40", "value": "1 to 2", "unit": "nM"},
      {"measurement": "Max RU value during association", "setting": "[1]", "value": 103, "unit": "RU"},
      {"measurement": "Max RU value during association", "setting": "Fc gamma receptor RIIB/C", "value": 22, "unit": "RU"},
      {"measurement": "Max RU value during association", "setting": "[2]", "value": 14, "unit": "RU"}
    ]}
  ]
}
